# Data: patent US20210371526A1 (AMPSOURCE BIOPHARMA SHANGHAI, published 2021)
# T1: CD20 on Raji cells (human, UniProt P11836 1-297)
# T1 construct: whole, on cells; also called CD20-positive tumor cells; Raji-luc
# T1 sequence (looked up): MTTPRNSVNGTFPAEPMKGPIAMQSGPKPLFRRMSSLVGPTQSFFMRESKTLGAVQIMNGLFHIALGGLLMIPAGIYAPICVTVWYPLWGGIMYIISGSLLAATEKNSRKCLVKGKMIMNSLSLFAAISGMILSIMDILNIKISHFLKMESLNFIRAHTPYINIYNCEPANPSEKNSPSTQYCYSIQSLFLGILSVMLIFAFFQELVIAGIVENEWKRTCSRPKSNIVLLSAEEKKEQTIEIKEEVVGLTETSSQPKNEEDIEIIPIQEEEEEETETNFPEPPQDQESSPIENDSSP
# T2: CD19 on tumor cells (Raji, Raji-Luc, NALM6, Reh) (human, UniProt P15391 20-556)
# T2 sequence (looked up): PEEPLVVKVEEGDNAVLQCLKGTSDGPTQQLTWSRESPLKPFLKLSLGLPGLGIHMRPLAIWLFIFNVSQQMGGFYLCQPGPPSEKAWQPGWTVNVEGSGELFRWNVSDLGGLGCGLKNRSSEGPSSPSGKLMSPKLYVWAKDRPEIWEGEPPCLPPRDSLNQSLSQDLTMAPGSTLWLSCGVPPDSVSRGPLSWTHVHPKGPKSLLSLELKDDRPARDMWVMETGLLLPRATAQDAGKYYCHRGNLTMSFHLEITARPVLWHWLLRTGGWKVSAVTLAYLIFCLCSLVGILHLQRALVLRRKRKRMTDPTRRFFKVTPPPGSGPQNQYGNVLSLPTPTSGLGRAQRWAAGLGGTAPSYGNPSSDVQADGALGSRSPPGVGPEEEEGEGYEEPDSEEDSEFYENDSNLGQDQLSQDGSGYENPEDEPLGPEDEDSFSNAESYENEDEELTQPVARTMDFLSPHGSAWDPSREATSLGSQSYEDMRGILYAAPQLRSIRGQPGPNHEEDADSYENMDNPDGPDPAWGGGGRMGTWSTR
# B1: Bispecific antibody AB2K (Anti-CD20×CD3, scFv1-scFv2-Fc) (bispecific antibody)
# chain: QVQLQQPGAELVKPGASVKMSCKASGYTFTSYNMHWVKQTPGRGLEWIGAIYPGNGDTSYNQKFKGKATLTADKSSSTAYMQLSSLTSEDSAVYYCARSTYYGGDWYFNVWGAGTTVTVSAGGGGSGGGGSGGGGSQIVLSQSPAILSASPGEKVTMTCRASSSVSYIHWFQQKPGSSPKPWIYATSNLASGVPVRFSGSGSGTSYSLTISRVEAEDAATYYCQQWTSNPPTFGGGTKLEIKGGGGGGSGGGGSGGGGSSSSSKAPPPSEVQLLESGGGLVQPGGSLKLSCAASGFTFNTYAMNWVRQAPGKGLEWVARIRSKYNNYATYYADSVKDRFTISRDDSKNTAYLQMNNLKTEDTAVYYCVRHGNFGNSYVSWFAYWGQGTLVTVSSGGGGSGGGGSGGGGSELVVTQEPSLTVSPGGTVTLTCRSSTGAVTTSNYANWVQQKPGQAPRGLIGGTNKRAPGTPARFSGSLLGGKAALTLSGVQPEDEAEYYCALWYSNLWVFGGGTKLTVLDKTHTCPPCPAPEAAGGPSVFLFPPKPKDQLMISRTPEVTCVVVDVSHEDPEVKFNWYVDGVEVHNAKTKPREEQYASTYRVVSVLTVLHQDWLNGKEYKCKVSNKALPASIEKTISKAKGQPREPQVYTLPPSRDELTKNQVSLTCLVKGFYPSDIAVEWESNGQPENNYKTTPPVLDSDGSFFLYSKLTVDKSRWQQGNVFSCSVLHEALHNHYTQKSLSLSPG
# B2: Bispecific antibody AB1K2 (Anti-CD19×CD3, scFv1-scFv2-Fc) (bispecific antibody)
# chain: QVQLQESGPGLVKPSQTLSLTCTVSGGSISTSGMGVGWIRQHPGKGLEWIGHIWWDDDKRYNPALKSRVTISVDTSKNQFSLKLSSVTAADTAVYYCARMELWSYYFDYWGQGTLVTVSSGGGGSGGGGSGGGGSEIVLTQSPATLSLSPGERATLSCSASSSVSYMHWYQQKPGQAPRLLIYDTSKLASGIPARFSGSGSGTDFTLTISSLEPEDVAVYYCFQGSVYPFTFGQGTKLEIKGGGGGGSGGGGSGGGGSSSSSKAPPPSEVQLLESGGGLVQPGGSLKLSCAASGFTFNTYAMNWVRQAPGKGLEWVARIRSKYNNYATYYADSVKDRFTISRDDSKNTAYLQMNNLKTEDTAVYYCVRHGNFGNSYVSWFAYWGQGTLVTVSSGGGGSGGGGSGGGGSELVVTQEPSLTVSPGGTVTLTCRSSTGAVTTSNYANWVQQKPGQAPRGLIGGTNKRAPGTPARFSGSLLGGKAALTLSGVQPEDEAEYYCALWYSNLWVFGGGTKLTVLDKTHTCPPCPAPEAAGGPSVFLFPPKPKDQLMISRTPEVTCVVVDVSHEDPEVKFNWYVDGVEVHNAKTKPREEQYASTYRVVSVLTVLHQDWLNGKEYKCKVSNKALPASIEKTISKAKGQPREPQVYTLPPSRDELTKNQVSLTCLVKGFYPSDIAVEWESNGQPENNYKTTPPVLDSDGSFFLYSKLTVDKSRWQQGNVFSCSVLHEALHNHYTQKSLSLSPG
# B3: Bispecific antibody AB11K (Anti-Mucin1×CD3, scFv1-scFv2-Fc) (bispecific antibody)
# chain: EVQLVESGGGLVQPGGSMRLSCVASGFPFSNYWMNWVRQAPGKGLEWVGEIRLKSNNYTTHYAESVKGRFTISRDDSKNSLYLQMNSLKTEDTAVYYCTRHYYFDYWGQGTLVTVSSGGGGSGGGGSGGGGSDIVMTQSPLSNPVTPGEPASISCRSSKSLLHSNGITYFFWYLQKPGQSPQLLIYQMSNLASGVPDRFSGSGSGTDFTLRISRVEAEDVGVYYCAQNLELPPTFGQGTKVEIKGGGGGGSGGGGSGGGGSSSSSKAPPPSEVQLLESGGGLVQPGGSLKLSCAASGFTFNTYAMNWVRQAPGKGLEWVARIRSKYNNYATYYADSVKDRFTISRDDSKNTAYLQMNNLKTEDTAVYYCVRHGNFGNSYVSWFAYWGQGTLVTVSSGGGGSGGGGSGGGGSELVVTQEPSLTVSPGGTVTLTCRSSTGAVTTSNYANWVQQKPGQAPRGLIGGTNKRAPGTPARFSGSLLGGKAALTLSGVQPEDEAEYYCALWYSNLWVFGGGTKLTVLDKTHTCPPCPAPEAAGGPSVFLFPPKPKDQLMISRTPEVTCVVVDVSHEDPEVKFNWYVDGVEVHNAKTKPREEQYASTYRVVSVLTVLHQDWLNGKEYKCKVSNKALPASIEKTISKAKGQPREPQVYTLPPSRDELTKNQVSLTCLVKGFYPSDIAVEWESNGQPENNYKTTPPVLDSDGSFFLYSKLTVDKSRWQQGNVFSCSVLHEALHNHYTQKSLSLSPG
# What was measured:
# CD20 on Raji cells [1] = biological target: T1, CD20 on Raji cells; assay: flow cytometry on CD20-positive Raji cells
# CD20 on Raji cells [2] = biological target: T1, CD20 on Raji cells; assay: cell-based or functional assay
# [3] = biological target: T2, CD19 on tumor cells (Raji, Raji-Luc, …); assay: cell-based or functional assay
# [4] = biological target: T2, CD19 on tumor cells (Raji, Raji-Luc, …); assay: flow cytometry on CD19-positive Raji cells
# [5] = biological target: T2, CD19 on tumor cells (Raji, Raji-Luc, …); assay: cell-based or functional assay; remark: listed apart in the source
# [6] = biological target: T3, CD3 on cynomolgus monkey T cells (CIK cells, primary T cells) (cynomolgus monkey, UniProt Q95LI5 22-198); assay: flow cytometry on cynomolgus monkey CIK/T cells
# T3 construct: whole, on cells; also called cynomolgus monkey CIK cell membrane CD3
# T3 sequence (Q95LI5 22-198): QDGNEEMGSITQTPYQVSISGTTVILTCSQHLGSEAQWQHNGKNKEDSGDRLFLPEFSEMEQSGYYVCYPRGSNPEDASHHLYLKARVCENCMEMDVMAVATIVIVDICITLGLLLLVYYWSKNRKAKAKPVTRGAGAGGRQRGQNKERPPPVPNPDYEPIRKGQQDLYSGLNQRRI
# [7] = biological target: T2, CD19 on tumor cells (Raji, Raji-Luc, …); assay: FACS on CD19-positive Raji cells, AF647 goat anti-human IgG [left panel]
# [8] = biological target: T2, CD19 on tumor cells (Raji, Raji-Luc, …); assay: cell-based or functional assay; remark: listed apart in the source
# [9] = biological target: T2, CD19 on tumor cells (Raji, Raji-Luc, …); assay: cell-based or functional assay; remark: listed apart in the source
# [10] = biological target: T3, CD3 on cynomolgus monkey T cells (CIK …); assay: flow cytometry on cynomolgus monkey primary T cells
binder,measurement,setting,value
B1,EC50,CD20 on Raji cells [1],~70 nM
same,EC50 of CIK-mediated killing of Raji-luc cells (luciferase),CD20 on Raji cells [2],0.0428 µg/mL
same,EC50 of activation of Jurkat NFATRE Luc reporter cells in the presence of CD20-positive Raji cells,CD20 on Raji cells [2],0.201 µg/mL
B2,EC50 of CIK-mediated killing of Raji-LUC cells,[3],0.000699 nM
same,"EC50 of CIK-mediated killing of Raji-LUC cells, second row",[3],0.000202 nM
same,EC50,[4],1.39 nM
same,EC50 of activation of Jurkat T cells with NFAT RE reporter in the presence of Raji target cells,[5],1.08 nM
same,EC50,[6],~5.5 nM
same,EC50 (read off the curve),[7],~1 nM
same,EC50 of PBMC-mediated killing of Raji-LUC cells,[8],0.00123 nM
same,"EC50 of PBMC-mediated killing of Raji-LUC cells, second row",[8],0.00125 nM
same,EC50 of CIK-mediated killing of Reh cells,[9],0.00171 nM
B3,EC50,[10],10 nM
